Columns and labels:
MICA008-ECD-HISAvi [1] = target: T1, MICA008-ECD-HISAvi (human); test: SPR (Carterra); antibody captured by anti-human Fc, monomeric ECD antigen injected;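 also: dissociation phase followed for about 10 min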
T1 construct: Two sources under one name in the two kinetic assays; also called MICA008 polypeptide
T1 chain: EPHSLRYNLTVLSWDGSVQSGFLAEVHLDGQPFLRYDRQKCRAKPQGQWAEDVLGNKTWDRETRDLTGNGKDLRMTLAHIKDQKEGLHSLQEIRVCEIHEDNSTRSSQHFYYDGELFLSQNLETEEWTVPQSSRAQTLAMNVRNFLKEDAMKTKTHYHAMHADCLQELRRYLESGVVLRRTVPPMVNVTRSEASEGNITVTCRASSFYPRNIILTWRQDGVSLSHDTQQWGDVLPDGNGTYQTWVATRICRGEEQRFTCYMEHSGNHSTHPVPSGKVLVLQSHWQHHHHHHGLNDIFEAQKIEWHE
Protocol: (§1) The dissociation kinetics were monitored for approximately 10 minutes. The chip surface was regenerated between binding cycles with 10 mM glycine HCl, pH 1.7. Binding kinetics were analyzed using software supplied by the manufacturer.

MICB005-ECD-HISAvi [2] = target: T2, MICB005-ECD-HISAvi (human, UniProt Q29980 24-309); test: as above
T2 construct: Two sources under one name in the two kinetic assays; also called MICB005 polypeptide
T2 sequence: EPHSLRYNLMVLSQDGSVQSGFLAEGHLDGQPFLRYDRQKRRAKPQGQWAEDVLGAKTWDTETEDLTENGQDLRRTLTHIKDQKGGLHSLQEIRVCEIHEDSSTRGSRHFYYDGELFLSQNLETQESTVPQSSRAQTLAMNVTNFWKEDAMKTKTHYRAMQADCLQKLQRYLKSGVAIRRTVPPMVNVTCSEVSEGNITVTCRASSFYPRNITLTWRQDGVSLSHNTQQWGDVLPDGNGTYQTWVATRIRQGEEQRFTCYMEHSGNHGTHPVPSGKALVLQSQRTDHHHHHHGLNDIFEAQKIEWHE
Protocol: as §1

MICA002-ECD-HISAvi [3] = target: T3, MICA002-ECD-HISAvi (human, UniProt Q29983 24-308); test: as above
T3 construct: also called MICA002 polypeptide
T3 chain: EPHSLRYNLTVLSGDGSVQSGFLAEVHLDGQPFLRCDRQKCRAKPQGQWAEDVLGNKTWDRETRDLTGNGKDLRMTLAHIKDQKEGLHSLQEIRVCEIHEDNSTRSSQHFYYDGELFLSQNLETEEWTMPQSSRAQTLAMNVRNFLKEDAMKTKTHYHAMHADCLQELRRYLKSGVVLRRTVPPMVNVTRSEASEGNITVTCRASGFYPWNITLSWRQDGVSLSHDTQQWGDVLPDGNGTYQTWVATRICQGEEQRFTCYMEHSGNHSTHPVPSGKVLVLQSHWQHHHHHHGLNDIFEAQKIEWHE
Protocol: as §1

MICA004-ECD-HISAvi [4] = target: T4, MICA004-ECD-HISAvi (human); test: as above
T4 construct: also called MICA004 polypeptide
T4 chain: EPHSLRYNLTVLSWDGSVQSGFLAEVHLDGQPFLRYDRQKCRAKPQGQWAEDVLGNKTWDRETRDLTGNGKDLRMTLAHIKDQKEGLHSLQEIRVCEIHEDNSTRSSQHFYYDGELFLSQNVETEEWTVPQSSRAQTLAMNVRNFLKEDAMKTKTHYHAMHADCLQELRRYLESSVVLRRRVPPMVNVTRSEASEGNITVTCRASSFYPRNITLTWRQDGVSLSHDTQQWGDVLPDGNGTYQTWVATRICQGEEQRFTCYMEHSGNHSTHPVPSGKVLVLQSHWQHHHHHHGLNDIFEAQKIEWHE
Protocol: as §1

MICA008-ECD-HISAvi [5] = target: T1, MICA008-ECD-HISAvi; test: BLI (GatorPrime); antibody on anti-hIgG Fc probe, monomeric antigen in solution;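 also: binding kinetics of anti-MICA/B antibodies measured by biolayer interferometry, with dissociation followed for about 10 min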
Protocol: (§2) The binding kinetics of the antibodies were also measured using the GatorPrime BLI (Biolayer Interferometry) system (Gator Bio, USA). Specifically, the anti-MICA/B antibodies were loaded with HFC (Anti-hIgG Fc, Gator Bio, Cat #: 160003). […] The dissociation kinetics were monitored for approximately 10 minutes. The probes were regenerated between binding cycles with Regeneration Buffer (Gator Bio, Cat #: 120012). Binding kinetics were analyzed using software supplied by the manufacturer.

MICB005-ECD-HISAvi [6] = target: T2, MICB005-ECD-HISAvi; test: as above
Protocol: as §2

MICA004-ECD-HISAvi [7] = target: T4, MICA004-ECD-HISAvi; test: as above
Protocol: as §2

MICA009Avi = target: T5, MICA009Avi (human); test: as above
T5 construct: extracellular domain
Protocol: as §2

MICA002-ECD-HISAvi [8] = target: T3, MICA002-ECD-HISAvi; test: as above
Protocol: as §2

human MICA008 on cells [9] = target: T6, human MICA008 on cells (human); test: flow cytometry, CHO-MICA008 cells
T6 construct: whole, on cells; also called CHO-MICA008; C1R-MICA008
Protocol: (§3) IgG1 is an isotype control (IgG). The antibody binding signals of APC (gMFI) to MICA/B were measured by flow cytometry.
(§4) After an incubation time of 30 minutes, the plate was centrifuged and cells were washed with PBS three times. […] After mixing for 30 minutes at room temperature, cells were washed with PBS twice. Fluorescent signal was detected and quantified by flow cytometry (Attune™ CytPix™, ThermoFisher) within the population of live cells (viability dye PI negative).

human MICA008 on cells [10] = target: T6, human MICA008 on cells; test: flow cytometry, HeLa cells (MICA008)
Protocol: as §3, §4

human MICA002 on cells = target: T7, human MICA002 on cells (human); test: flow cytometry, CHO-MICA002 cells
T7 chain: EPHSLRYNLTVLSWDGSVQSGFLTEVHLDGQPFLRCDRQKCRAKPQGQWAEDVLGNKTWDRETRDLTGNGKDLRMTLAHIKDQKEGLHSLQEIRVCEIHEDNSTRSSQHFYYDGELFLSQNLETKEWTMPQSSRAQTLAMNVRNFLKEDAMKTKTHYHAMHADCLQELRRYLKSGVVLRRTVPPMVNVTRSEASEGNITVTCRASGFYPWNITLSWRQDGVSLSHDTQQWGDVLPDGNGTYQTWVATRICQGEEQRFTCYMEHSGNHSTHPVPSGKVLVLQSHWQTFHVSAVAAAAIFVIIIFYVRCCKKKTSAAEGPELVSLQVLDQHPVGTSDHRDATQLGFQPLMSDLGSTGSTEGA
Protocol: CHO-MICA002 cells were incubated with titrated anti-MICA/B antibodies and then APC-labeled anti-human Fc antibody. […] The antibody binding signals of APC (gMFI) to MICA/B were measured by flow cytometry.
as §4

human MICB005 on cells = target: T8, human MICB005 on cells (human); test: flow cytometry, CHO-MICB005 cells
T8 construct: whole, on cells; also called CHO-MICB005; C1R-MICB005
Protocol: as §3, §4

human MICA004 on cells = target: T9, human MICA004 on cells (human); test: flow cytometry, CHO-MICA004 cells
T9 construct: whole, on cells; also called CHO-MICA004; C1R-MICA004
Protocol: as §3, §4

Binder	Kd (MICA008-ECD-HISAvi [1]) [nM]	Kd (MICB005-ECD-HISAvi [2]) [nM]	binding result (MICA002-ECD-HISAvi [3])	Kd (MICA004-ECD-HISAvi [4]) [nM]	Kd (MICA008-ECD-HISAvi [5]) [nM]	Kd (MICB005-ECD-HISAvi [6]) [nM]	Kd (MICA004-ECD-HISAvi [7]) [nM]	Kd (MICA009Avi) [nM]	binding result (MICA008-ECD-HISAvi [5])	binding result (MICB005-ECD-HISAvi [6])	binding result (MICA002-ECD-HISAvi [8])	binding result (MICA004-ECD-HISAvi [7])	EC50 (human MICA008 on cells [9]) [µg/mL]	Kd (MICA002-ECD-HISAvi [3]) [nM]	EC50 (human MICA008 on cells [10]) [µg/mL]	EC50 (human MICA002 on cells) [µg/mL]	EC50 (human MICB005 on cells) [µg/mL]	EC50 (human MICA004 on cells) [µg/mL]
B10G5 (antibody, human IgG1, kappa, V domains shown, also called B10G5-2; P2B10G5) VH: EVQLEESGPGLVKPSQSLSLTCTVTGYSITSDYAWNWIRQFPGNKLEWMGYISYSGSTNYNPSLKSRISITRDTSKNQFFLQLNSVITEDTATYYCARGGTYFDYWGQGTTLTVSS VL: DIVLTQTTSYLSVSLGGRVTIACKASAHINNWLAWYQQKPGNAPRLLISDATSLETGVPSRFSGSGSGKDYTLSITSLQTEDVATYYCQHYWSTPWTFGGGTKLEIKR	0.846	2.27	no binding	6.92	0.625	1.35	1.16	0.716										
CM33322 (antibody, human IgG1, kappa) heavy: not shown light: DIVMTQTPLSSPVTLGQPASISCRSSQSLVHRDGNTYLSWFLQRPGQAPRLLIYRISNRFSGVPDRFSGSGAGTDFTLKISRVEAEDVGVYYCMQATQIPNTFGQGTKLEIKRTVAAPSVFIFPPSDEQLKSGTASVVCLLNNFYPREAKVQWKVDNALQSGNSQESVTEQDSKDSTYSLSSTLTLSKADYEKHKVYACEVTHQGLSSPVTKSFNRGEC									no binding	no binding	no binding	no binding						
#39 (antibody, human IgG1, V domains shown, also called PL114G03; Hit ID 39) VH: QVQLQQSGAELVRPGTSVKVSCKASGYAFTDYLIEWVKQRPGQGLEWIGGINPGSGSTNYNEKFKGKAILTADKSSSTAYMQLSSLTSDDSAVYFCARLDGNYVGYWGQGTTLTVSS VL: DILLTQSPASLSASVGETVTITCRASGNIHNYLAWYQQKQGKSPQLLVYHAKTLADGVPSRFSGSGSGTQYSLKINSLQPEDFGSYYCQHFWSTPWTFGGGTKLEIK	54.8	5.37		139									1.31	14.4	4.27	3.68	1.4	7.27
#38 (antibody, human IgG1, V domains shown, also called PL114H02; Hit ID 38) VH: QVQLQQSGAELARPGASVKLSCKASGYTFSIHWMQWVKQRPGQGLEWIGAIYPGNGDTKYTQKFKGKATLTADKSSSTAYMQLSNLASEDSAVYYCATLYGNYEAYWGQGTLVTVSA VL: DIVLTQSPASLSASVGETVTITCGASENIYGALNWYQRKQGKSPQLLIYGTTNLADGMSSRFSGSGSGRQYSLKISSLHPDDVATYYCQNVLTTPPWTFGGGTKLEIK	7.04	1.78		3.77									1.1	2.49	1.85	2.48	1.42	3.93
6E1.1.12 (antibody, human IgG1, kappa, V domains shown) VH: QGQMQQSGAELVKPGASVKLSCKTSGFTFSDNYISWLKQKPGQSLEWIAWIYAGTGGSSYNQKFRDKAQLTVDTSSRTAYMQLSSLTTEDSAIYYCARHDYYGTSGAWFAYWGRGTLVTVSA VL: DVLMTQTPLSLPVSLGDQASISCRSSQHIVHSNENTYLEWYLQKPGQSPKLLIYKVSNRFSGVPDRFSGSGSGTDFTLKISRVEAEDLGVYYCFQGSHVPWTFGGGTKVEIKR		8.62				4.54		3.94					0.15		0.269	0.882	0.184	0.239
#31 (antibody, human IgG1, V domains shown, also called PL116D11; Hit ID 31) VH: EVQLQQSGPELVKPGASVKVSCKASGYAFTKYNIYWVKQSHGKSLEWIGYIDPYNGGTVQNQKFKGKATLTVDKSSSTAYMHLNSLTSEDSAVYYCATTDGYSLFTYWGQGTLVTVSS VL: DIQMTQTTSSLSASLGDRVTISCRASQDIGNYLNWYQQKPDGTVKLLIYYTSRLHSGVPSRFSGSGSGTDYSLTISNLEQEDIATYFCQQGNTLPFTFGSGTKLEIK	14.4	15		25.3									0.051	13.2	0.183	0.232	0.21	0.221
#34 (antibody, human IgG1, V domains shown, also called PL111H04; Hit ID 34) VH: QVQLKQSGPELVKPGASVKVSCKASGYAFTKYNIYWVKQSHGKSLEWIGYIDPYNGGTVQNQKFKGKATLTVDKSSSTAYMHLNSLTSEDSAVYYCATTDGYSLFTYWGQGTLVTVSS VL: DIVLTQSPTTMAASPGEKITITCSASSSISSNYLHWYQQKPGFSPKLLIYRTSNLASGVPARFSGSGSGTSYSLTIGTMEAEDVATYYCQQGSSIPFTFGSGTKLEIK	29.2	38		44.5									0.048	24.9	0.122	0.144	0.278	0.202
#40 (antibody, human IgG1, V domains shown, also called PL113C03; Hit ID 40) VH: QVQLQQSGPELVKPGASVKVSCKASGYAFTKYNIYWVKQSHGKSLEWIGYIDPYNGGTVYNQKFKGKATLTVDKSSSTAYMHLNSLTSEDSAVYYCATTDGYSLFTYWGQGTLVTVSA VL: DIQMTQTTSSLSASLGDRVTITCSAGQGINNYLNWYQQKPDGTVKLLIFYTSSLQSGVPSRFSGSGSGADYSLTISNLEPEDIATYYCQQYSKLPLTFGAGTKLELK	20.5	45.8		30.4									0.085	13.9	0.183	0.176	0.445	0.306
#36 (antibody, human IgG1, V domains shown, also called PL116H11; Hit ID 36) VH: QVQLQQSGPELVKPGASVKVSCKASGYAFTKYNIYWVKQSHGKSLEWIGYIDPYNGGTVYNQKFKGKATLTVDKSSSTAYMHLNSLTSEDSAVYYCATTDGYSLFTYWGQGTLVTVSA VL: DIQMTQTTSSLSASLGDRVTISCRASQDISNYLNWYQQKPDGTVKLLIYYTSRLHSGVPSRFSGSGSGTDYSLTISNLEQEDIATYFCQQGNTLPFTFGSGTKLEIK	21.2	23.1		40.1									0.063	20.7	0.189	0.2	0.249	0.248
